We go through 2 substances from publication PMC4851077.

Experiment [1] has as its target glucose oxidase (GOD, E.C. 1.1.3.4, type VII, MW ≈ 160,000) (UniProt P13006). As to the kind of experiment: quartz crystal microbalance (QCM); layer-by-layer adsorption on Au/MPS/PDDA-coated quartz resonator; alternate immersion in Con A (1 mg/mL, pH 7.0) and GOD (1 mg/mL, pH 7.0) for 20 min each, 0.1 M Tris-HCl with 0.1 M NaCl, 1 mM MnCl2, 1 mM CaCl2; washed, dried, frequency measured in air.

Experiment [2] addresses concanavalin A extracted from Jack beans (Con A, type V, MW ≈ 104,000) (Jack bean). The experiment is described as above.

For the substance “concanavalin A extracted from Jack beans (Con A, type V, MW ≈ 104,000) (natural protein)”, in experiment [1], the average QCM frequency decrease for each layer was 82 Hz.

Take “glucose oxidase (GOD, E.C. 1.1.3.4, type VII, MW ≈ 160,000) (from UniProt P13006 17-605) (enzyme)”: the average QCM frequency decrease for each layer in experiment [2] was 58 Hz.
